Data from patent US20230381130A1 (ATRECA, published 2023).

T1: human FcγRIIa-H (the high-affinity H131 variant) (human, UniProt P12318 34-317)
T1 sequence (looked up): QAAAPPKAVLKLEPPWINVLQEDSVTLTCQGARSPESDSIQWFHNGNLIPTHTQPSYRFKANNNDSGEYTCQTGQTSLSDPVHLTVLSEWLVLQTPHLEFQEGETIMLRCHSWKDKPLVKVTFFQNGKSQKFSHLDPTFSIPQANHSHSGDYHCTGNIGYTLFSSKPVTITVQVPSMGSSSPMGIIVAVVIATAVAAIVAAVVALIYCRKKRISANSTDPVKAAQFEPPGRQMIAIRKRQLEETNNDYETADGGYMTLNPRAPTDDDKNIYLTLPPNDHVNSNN


Molecular target: T1, human FcγRIIa-H (the high-affinity H131 …)
Assay: cell-based or functional assay

Avg ΔActivity Rank	EC50 [nM]	Fold ΔActivity	Binder
2			AIP-169752 (antibody, V domains shown) VH: EVQLVESGGALVKPGGSLRLSCAASGFTFSKAWMSWVRQAPGKGLEWVGRIKSVTDGETTDYAAPVKGRFTISRDDSKSTLYLQMNSLKTEDTAVYYCTSSFCCRGGGSCPSHDTSYCGGQYKSYYYMDVWGKGTTVTVSS VL: QSVLTQPPSASGTPGQRVTISCSGSSSNIGSSSVSWYQQLPGTAPKLLIYKNNQRPSGVPDRFSGSKSGTSASLAISGLRSEDEADYYCSTWDDSLSVRVFGGGTKLTVL
1			AIP-185680 (antibody, V domains shown) VH: EVQLVESGGALVKPGGSLRLSCAASGFTFSKAWMSWVRQAPGKGLEWVGRIKSVTDGETTDYAAPVKGRFTISRDDSKSTLYLQMNSLKTEDTAVYYCTSSFCCRGGGGSCPSHDTSYCGGQYKSYYYMDVWGKGTTVTVSS VL: QSVLTQPPSASGTPGQRVTISCSGSSSNIGSSSVSWYQQLPGTAPKLLIYKNNQRPSGVPDRFSGSKSGTSASLAISGLRSEDEADYYCSTWDDSLSVRVFGGGTKLTVL
2			AIP-191692 (antibody, V domains shown) VH: EVQLVESGGALVKPGGSLRLSCAASGFTFSKAWMSWVRQAPGKGLEWVGRIKSVTDGETTDYAAPVKGRFTISRDDSKSTLYLQMNSLKTEDTAVYYCTSSFCCRGGSCPSHDTSYCGGGSGYKSYYYMDVWGKGTTVTVSS VL: QSVLTQPPSASGTPGQRVTISCSGSSSNIGSSSVSWYQQLPGTAPKLLIYKNNQRPSGVPDRFSGSKSGTSASLAISGLRSEDEADYYCSTWDDSLSVRVFGGGTKLTVL
2			AIP-107388 (antibody, V domains shown) VH: EVQLVESGGALVKPGGSLRLSCAASGFTFSKAWMSWVRQAPGKGLEWVGRIKSVTDGETTDYAAPVKGRFTISRDDSKSTLYLQMNSLKTEDTAVYYCTSSFCCRGGSCPSHDTSYCGGGQYKSYYYMDVWGKGTTVTVSS VL: QSVLTQPPSASGTPGQRVTISCSGSSSNIGSSSVSWYQQLPGTAPKLLIYKNNQRPSGVPDRFSGSKSGTSASLAISGLRSEDEADYYCSTWDDSLSVRVFGGGTKLTVL
2			AIP-167295 (antibody, V domains shown) VH: EVQLVESGGALVKPGGSLRLSCAASGFTFSKAWMSWVRQAPGKGLEWVGRIKSVTDGETTDYAAPVKGRFTISRDDSKSTLYLQMNSLKTEDTAVYYCTSSFCCRGGSCPSHDTSYCGGQYSYYYMDVWGKGTTVTVSS VL: QSVLTQPPSASGTPGQRVTISCSGSSSNIGSSSVSWYQQLPGTAPKLLIYKNNQRPSGVPDRFSGSKSGTSASLAISGLRSEDEADYYCSTWDDSLSVRVFGGGTKLTVL
2	258	0.55	AIP-114111 (antibody, V domains shown) VH: EVQLVESGGALVKPGGSLRLSCAASGFTFSKAWMSWVRQAPGKGLEWVGRIKSVTDGETTDYAAPVKGRFTISRDDSKSTLYLQMNSLKTEDTAVYYCTSSFCCRGGSCPSHDTSYCGGQYKSSYYYMDVWGKGTTVTVSS VL: QSVLTQPPSASGTPGQRVTISCSGSSSNIGSSSVSWYQQLPGTAPKLLIYKNNQRPSGVPDRFSGSKSGTSASLAISGLRSEDEADYYCSTWDDSLSVRVFGGGTKLTVL
2			AIP-163723 (antibody, V domains shown) VH: EVQLVESGGALVKPGGSLRLSCAASGFTFSKAWMSWVRQAPGKGLEWVGRIKSVTDGETTDYAAPVKGRFTISRDDSKSTLYLQMNSLKTEDTAVYYCTSSFCCRGGSCPSHDTSYCGGQKSYYYMDVWGKGTTVTVSS VL: QSVLTQPPSASGTPGQRVTISCSGSSSNIGSSSVSWYQQLPGTAPKLLIYKNNQRPSGVPDRFSGSKSGTSASLAISGLRSEDEADYYCSTWDDSLSVRVFGGGTKLTVL
2	472	0.58	AIP-194564 (antibody, V domains shown) VH: EVQLVESGGALVKPGGSLRLSCAASGFTFSKAWMSWVRQAPGKGLEWVGRIKSVTDGETTDYAAPVKGRFTISRDDSKSTLYLQMNSLKTEDTAVYYCTSSFCCRSGGSCPSHDTSYCGGQYKSYYYMDVWGKGTTVTVSS VL: QSVLTQPPSASGTPGQRVTISCSGSSSNIGSSSVSWYQQLPGTAPKLLIYKNNQRPSGVPDRFSGSKSGTSASLAISGLRSEDEADYYCSTWDDSLSVRVFGGGTKLTVL
2			AIP-182606 (antibody, V domains shown) VH: EVQLVESGGALVKPGGSLRLSCAASGFTFSKAWMSWVRQAPGKGLEWVGRIKSVTDGETTDYAAPVKGRFTISRDDSKSTLYLQMNSLKTEDTAVYYCTSSFSCRGGSCPSHDTSYGGQYKSYYYMDVWGKGTTVTVSS VL: QSVLTQPPSASGTPGQRVTISCSGSSSNIGSSSVSWYQQLPGTAPKLLIYKNNQRPSGVPDRFSGSKSGTSASLAISGLRSEDEADYYCSTWDDSLSVRVFGGGTKLTVL
2			AIP-145328 (antibody, V domains shown) VH: EVQLVESGGALVKPGGSLRLSCAASGFTFSKAWMSWVRQAPGKGLEWVGRIKSVTDGETTDYAAPVKGRFTISRDDSKSTLYLQMNSLKTEDTAVYYCTSSFCCRGGSGGSCPSHDTSYCGGQYKSYYYMDVWGKGTTVTVSS VL: QSVLTQPPSASGTPGQRVTISCSGSSSNIGSSSVSWYQQLPGTAPKLLIYKNNQRPSGVPDRFSGSKSGTSASLAISGLRSEDEADYYCSTWDDSLSVRVFGGGTKLTVL
2.5	446	0.75	AIP-125646 (antibody, V domains shown) VH: EVQLVESGGALVKPGGSLRLSCAASGFTFSKAWMSWVRQAPGKGLEWVGRIKSVTDGETTDYAAPVKGRFTISRDDSKSTLYLQMNSLKTEDTAVYYCTSSFCCRGGSCPSHDTSYCGQYKSYYYMDVWGKGTTVTVSS VL: QSVLTQPPSASGTPGQRVTISCSGSSSNIGSSSVSWYQQLPGTAPKLLIYKNNQRPSGVPDRFSGSKSGTSASLAISGLRSEDEADYYCSTWDDSLSVRVFGGGTKLTVL
1			AIP-131762 (antibody, V domains shown) VH: EVQLVESGGALVKPGGSLRLSCAASGFTFSKAWMSWVRQAPGKGLEWVGRIKSVTDGETTDYAAPVKGRFTISRDDSKSTLYLQMNSLKTEDTAVYYCTSSFCGGPSHDTSYCGGQYKSYYYMDVWGKGTTVTVSS VL: QSVLTQPPSASGTPGQRVTISCSGSSSNIGSSSVSWYQQLPGTAPKLLIYKNNQRPSGVPDRFSGSKSGTSASLAISGLRSEDEADYYCSTWDDSLSVRVFGGGTKLTVL
